The values that follow come from the supplement of paper PMC10724198.

± gives the standard deviation of the averaged measurements.

The data set has as its system Saccharomyces cerevisiae. In words: protein stability index of tFT-peptide fusion (C-terminal peptide) (PSI (0-1 scale)); higher = more stable (slower turnover). The following applies: temperature: 30 C. How it is done: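 MPS profiling in S. cerevisiae of the yeast C-terminome library: the last 12 aa of each annotated ORF are fused to the C-terminus of a sfGFP-mCherry timer, after a GGGS linker. Cells are FACS-sorted into 8 mCherry/sfGFP bins and deep-sequenced. PSI runs from 0 (unstable) to 1 (stable); wild type and das1Δ backgrounds, two technical replicates each.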

Setting [1] is: genetic background: das1 deletion.

Take NSARKRVFGTVI [DIP2 C-terminal 12 aa]: the protein stability index was found to be 0.6997 ± 0.0036 under setting [1] and 0.655 ± 0.0069 (genetic background: wild type).
Take “NSISPPPRKGFI [YGL006W-A C-terminal 12 aa]”: the protein stability index runs as follows: under setting [1], 0.7177 ± 0.005; (genetic background: wild type) 0.714 ± 0.055.
Turning to NTFTEHNSNIYY [SPT10 C-terminal 12 aa], the protein stability index is, setting by setting: under setting [1], 0.704 ± 0.021; (genetic background: wild type) 0.706 ± 0.029.
Consider NTNELTDEHRWI [PHO2 C-terminal 12 aa], for which the protein stability index reads like this: under setting [1], 0.6977 ± 0.0017; (genetic background: wild type) 0.668 ± 0.017.
For “NVFNPDQPRMGP [YLR154W-A C-terminal 12 aa]”, the protein stability index is, setting by setting: under setting [1], 0.711 ± 0.017; (genetic background: wild type) 0.711 ± 0.018.
Take NVGYMHTQPQQR [TCO89 C-terminal 12 aa]: the protein stability index is, setting by setting: under setting [1], 0.71 ± 0.0077; (genetic background: wild type) 0.67 ± 0.016.
Regarding NVIRVWQVMTAN [ASC1 C-terminal 12 aa], the protein stability index under setting [1] was 0.576 ± 0.0091 and the protein stability index (genetic background: wild type) turned out to be 0.272 ± 0.016.
With NVLTVVNPDEAD [SLG1 C-terminal 12 aa], the protein stability index reads like this: under setting [1], 0.692 ± 0.027; (genetic background: wild type) 0.6841 ± 0.0015.
In turn, NWSNQQINVQSS [PHM8 C-terminal 12 aa] gave a protein stability index under setting [1] of 0.7172 ± 0.0032 and a protein stability index (genetic background: wild type) of 0.674 ± 0.018.
Take NYEITPYENVHV [TOS2 C-terminal 12 aa]: the protein stability index is 0.682 ± 0.026 under setting [1] and 0.7131 ± 0.0041 (genetic background: wild type).
As to NYLFKLMGPSSD [VTC2 C-terminal 12 aa], the protein stability index under setting [1] worked out at 0.687 ± 0.032 and the protein stability index (genetic background: wild type) is 0.655 ± 0.008.
In the case of PAAVFAETLKHD [RPL4B C-terminal 12 aa], the protein stability index is, setting by setting: under setting [1], 0.686 ± 0.016; (genetic background: wild type) 0.705 ± 0.011.
Turning to PDDQIHSILLSL [MET13 C-terminal 12 aa], the protein stability index by setting is: under setting [1], 0.708 ± 0.019; (genetic background: wild type) 0.714 ± 0.018.
In the same order, the values of “PGGGGGSPLIFL [YHR165W-A C-terminal 12 aa]” are 0.7299 ± 0.0012 and 0.728 ± 0.02.
Taken in the same sequence, the figures for PGTRGRVASKFL [MIM1 C-terminal 12 aa] were 0.7098 ± 0.0037 and 0.705 ± 0.0099.
On to PISHVNNNDTHA [SLM3 C-terminal 12 aa], for which the protein stability index was determined as 0.727 ± 0.014 under setting [1] and 0.688 ± 0.0079 (genetic background: wild type).
For the sequence PKYKEEESRSAV [RSN1 C-terminal 12 aa], the protein stability index is, setting by setting: under setting [1], 0.678 ± 0.035; (genetic background: wild type) 0.668 ± 0.019.
As to PLTNNIRPISIM [YJR115W C-terminal 12 aa], the protein stability index amounted to 0.6893 ± 0.0007 under setting [1] and 0.6548 ± 0.005 (genetic background: wild type).
As for PMIWHLVKKQWK [TOM5 C-terminal 12 aa], the protein stability index under setting [1] is 0.686 ± 0.011 and the protein stability index (genetic background: wild type) was 0.682 ± 0.052.
In the same order, the values of PPNSTSTNPYSS [SKG3 C-terminal 12 aa] are 0.729 ± 0.015 and 0.7181 ± 0.0014.
PPPQESTEKEEK [MRP13 C-terminal 12 aa] registered a protein stability index under setting [1] of 0.709 ± 0.031 and a protein stability index (genetic background: wild type) of 0.668 ± 0.0098.
Turning to PPSPQEELLIEL [VPS27 C-terminal 12 aa], the protein stability index reads like this: under setting [1], 0.721 ± 0.017; (genetic background: wild type) 0.7051 ± 0.0024.
Turning to PRERLLSEYCSS [MET8 C-terminal 12 aa], the protein stability index is, setting by setting: under setting [1], 0.71885 ± 0.00032; (genetic background: wild type) 0.7199 ± 0.0033.
In turn, PSNASNTTTRRP [YKR045C C-terminal 12 aa] gave a protein stability index under setting [1] of 0.703 ± 0.032 and a protein stability index (genetic background: wild type) of 0.6901 ± 0.0053.
In the same order, the values of PSYPSEKISYSK [ADO1 C-terminal 12 aa] are 0.7017 ± 0.0027 and 0.726 ± 0.065.
With PTIVGGLYYQRP [AAR2 C-terminal 12 aa], the protein stability index amounted to 0.7 ± 0.0021 under setting [1] and 0.696 ± 0.012 (genetic background: wild type).
In the same order, the values of QAKKSNSCCIIM [YKT6 C-terminal 12 aa] are 0.732 ± 0.034 and 0.766 ± 0.06.
In the same order, the values of QAKLTAATNAKQ [PDC1 C-terminal 12 aa] are 0.698 ± 0.018 and 0.716 ± 0.035.
In turn, QEGGDNTKIKQN [RNP1 C-terminal 12 aa] registered a protein stability index under setting [1] of 0.731 ± 0.023 and a protein stability index (genetic background: wild type) of 0.638 ± 0.024.
In the same order, the values of QFFFTSRQKNYV [ERP4 C-terminal 12 aa] are 0.707 ± 0.014 and 0.654 ± 0.01.
Consider QIADDRPWCRME [YHC3 C-terminal 12 aa], for which the protein stability index runs as follows: under setting [1], 0.705 ± 0.01; (genetic background: wild type) 0.6831 ± 0.0064.
QIAFAWQNKPRL [PXP1 C-terminal 12 aa]: the protein stability index runs as follows: under setting [1], 0.815 ± 0.029; (genetic background: wild type) 0.793 ± 0.045.
As to QKAQDVDVSMQD [RPN13 C-terminal 12 aa], the protein stability index stood at 0.68 ± 0.022 under setting [1] and 0.654 ± 0.026 (genetic background: wild type).
As to QKRKSRILSFIK [UBP9 C-terminal 12 aa], the protein stability index under setting [1] was 0.7208 ± 0.006 and the protein stability index (genetic background: wild type) was 0.732 ± 0.047.
In the same order, the values of QLINGRKIIAGN [MOT2 C-terminal 12 aa] are 0.6718 ± 0.0014 and 0.7 ± 0.09.
QLVKLQLVELKL [LAM5 C-terminal 12 aa]: the protein stability index is, setting by setting: under setting [1], 0.6108 ± 0.0024; (genetic background: wild type) 0.602 ± 0.026.
In the case of QMQQMAKQFGMG [SRP54 C-terminal 12 aa], the protein stability index runs as follows: under setting [1], 0.6863 ± 0.0024; (genetic background: wild type) 0.68513 ± 0.00031.
“QMSAMTEKFGKL [YKL068W-A C-terminal 12 aa]”: the protein stability index was determined as 0.726 ± 0.0095 under setting [1] and 0.693 ± 0.015 (genetic background: wild type).
On to “QNEICQYDNTSP [YGR109W-B C-terminal 12 aa]”, for which the protein stability index under setting [1] is 0.7173 ± 0.0057 and the protein stability index (genetic background: wild type) was 0.694 ± 0.012.
Taken in the same sequence, the figures for QNLLSAYRMNHK [AVO1 C-terminal 12 aa] were 0.70387 ± 0.00067 and 0.64 ± 0.021.
Turning to QQGGAGADQKTE [EMC10 C-terminal 12 aa], the protein stability index by setting is: under setting [1], 0.6815 ± 0.0066; (genetic background: wild type) 0.656 ± 0.028.
On to QQQQQQQQQQQQ [PUB1 C-terminal 12 aa], for which the protein stability index by setting is: under setting [1], 0.71 ± 0.029; (genetic background: wild type) 0.672 ± 0.052.
In the same order, the values of QVSLLLGFSSRS [MRX20 C-terminal 12 aa] are 0.698 ± 0.0012 and 0.7 ± 0.011.
In the case of QYDYELIQVQCS [PPN2 C-terminal 12 aa], the protein stability index runs as follows: under setting [1], 0.431 ± 0.043; (genetic background: wild type) 0.51 ± 0.032.
QYVLYKNEAGDK [AIM39 C-terminal 12 aa]: the protein stability index reads like this: under setting [1], 0.689 ± 0.017; (genetic background: wild type) 0.698 ± 0.019.
On to RAVTKYSSSTQA [HTB1 C-terminal 12 aa], for which the protein stability index worked out at 0.7067 ± 0.0046 under setting [1] and 0.695 ± 0.034 (genetic background: wild type).
For the sequence RDLFEIYQKMMQ [MUK1 C-terminal 12 aa], the protein stability index reads like this: under setting [1], 0.725 ± 0.02; (genetic background: wild type) 0.706 ± 0.056.
Taken in the same sequence, the figures for RDNQIPDKEIGI [CAF16 C-terminal 12 aa] were 0.6731 ± 0.0026 and 0.704 ± 0.072.
Take REAKNLPKPSFL [EDC1 C-terminal 12 aa]: the protein stability index reads like this: under setting [1], 0.70153 ± 0.00024; (genetic background: wild type) 0.698 ± 0.0091.
As to RELLKSLVLSHR [RSM23 C-terminal 12 aa], the protein stability index reads like this: under setting [1], 0.703 ± 0.0085; (genetic background: wild type) 0.683 ± 0.019.
Regarding RFLDYVRELESF [PDX1 C-terminal 12 aa], the protein stability index came out at 0.698 ± 0.014 under setting [1] and 0.70618 ± 0.0004 (genetic background: wild type).
Sequence RGSEHYTKRKKI [UBS1 C-terminal 12 aa] had a protein stability index under setting [1] of 0.687 ± 0.022 and a protein stability index (genetic background: wild type) of 0.6822 ± 0.0035.
Take RIELSKYYNTNL [YPD1 C-terminal 12 aa]: the protein stability index was 0.6986 ± 0.0043 under setting [1] and 0.716 ± 0.059 (genetic background: wild type).
In the same order, the values of RIIEYFEEYQCW [FRE6 C-terminal 12 aa] are 0.712 ± 0.014 and 0.731 ± 0.042.
RKEDDKRDTQEK [SOF1 C-terminal 12 aa] registered a protein stability index under setting [1] of 0.713 ± 0.024 and a protein stability index (genetic background: wild type) of 0.67 ± 0.019.
Turning to “RKELEKGKKNSK [YLR363W-A C-terminal 12 aa]”, the protein stability index reads like this: under setting [1], 0.694 ± 0.025; (genetic background: wild type) 0.703 ± 0.054.
Take RKFVFNPPKPRK [CYT1 C-terminal 12 aa]: the protein stability index is 0.691 ± 0.025 under setting [1] and 0.694 ± 0.056 (genetic background: wild type).
For the sequence RKYPNQCGTISN [EXG1 C-terminal 12 aa], the protein stability index by setting is: under setting [1], 0.712 ± 0.011; (genetic background: wild type) 0.674 ± 0.03.
Take RLQQVRKNPYPF [OPI7 C-terminal 12 aa]: the protein stability index by setting is: under setting [1], 0.7357 ± 0.0072; (genetic background: wild type) 0.712 ± 0.032.
As for RLYDRINGKPHD [MRP10 C-terminal 12 aa], the protein stability index was 0.671 ± 0.014 under setting [1] and 0.668 ± 0.021 (genetic background: wild type).
Turning to RNVYSTKTRCIE [TDA10 C-terminal 12 aa], the protein stability index was 0.681 ± 0.017 under setting [1] and 0.699 ± 0.023 (genetic background: wild type).
For RQDNNHNGSSNG [MET32 C-terminal 12 aa], the protein stability index came out at 0.6936 ± 0.0016 under setting [1] and 0.706 ± 0.025 (genetic background: wild type).
Take RQFKEILTVKEE [RRP40 C-terminal 12 aa]: the protein stability index reads like this: under setting [1], 0.6732 ± 0.0037; (genetic background: wild type) 0.687 ± 0.013.
RQNDKGAIKKSK [YEA4 C-terminal 12 aa]: the protein stability index by setting is: under setting [1], 0.676 ± 0.019; (genetic background: wild type) 0.719 ± 0.049.
RRAAESGKLKME [YNL108C C-terminal 12 aa]: the protein stability index stood at 0.693 ± 0.029 under setting [1] and 0.698 ± 0.067 (genetic background: wild type).
RRDYWLSKGQAL [TRF5 C-terminal 12 aa]: the protein stability index was 0.7173 ± 0.0032 under setting [1] and 0.725 ± 0.032 (genetic background: wild type).
In the case of RREATRISDLLK [FMS1 C-terminal 12 aa], the protein stability index by setting is: under setting [1], 0.695 ± 0.014; (genetic background: wild type) 0.703 ± 0.06.
